The source of these data is patent publication US5693476.

The target of assay [1] is GST-syntaxin 1A cytoplasmic domain fusion protein (Syn 1A11, amino acids 4-266), immobilized on glutathione agarose beads (Schistosoma japonicum; rat). The assay is described as follows: 20S complex on GST-Syn 1A11 beads, ATP and MgCl2, Western blot densitometry. On the technique in general: In western blotting, separated proteins are transferred to a membrane and probed.

Assay [2] concerns the target GST-syntaxin 1A deletion mutant Syn 1A17 (amino acids 4-240) (Schistosoma japonicum; rat). The assay is described as follows: 20S complex on GST-Syn 1A17 beads, ATP and Mg++, Western blot densitometry.
Assay [3] addresses GST-SNAP-25, immobilized on glutathione agarose beads (Schistosoma japonicum; mouse). The assay is described as follows: GST pull-down on glutathione agarose beads, Western blot (anti-α-SNAP), densitometry, FIG. 3.
The target of assay [4] is GST-syntaxin 1A cytoplasmic domain fusion protein (Syn 1A11, amino acids 4-266), immobilized on glutathione agarose beads (Schistosoma japonicum; rat). The description is as above.
The target of assay [5] is GST (glutathione-S-transferase) alone, immobilized on glutathione agarose beads (Schistosoma japonicum) [GST: P08515]. The assay is described as above.
The target in assay [6] is GST-VAMP (full cytoplasmic domain of VAMP), immobilized on glutathione agarose beads (Schistosoma japonicum; rat). Described as above.
For assay [7], the target named is GST-syntaxin 1A cytoplasmic domain fusion protein (Syn 1A11, amino acids 4-266), immobilized on glutathione agarose beads (Schistosoma japonicum; rat). The assay is described as follows: 20S complex assembly on GST-syntaxin beads with all four proteins together, ATP, 18° C. overnight MgCl2, Western blot densitometry, FIG. 6B.
The target in assay [8] is GST-syntaxin 1A H3 domain construct Syn 1A16 (amino acids 191-266) (Schistosoma japonicum; rat). The assay is described as above.
The target of assay [9] is GST-syntaxin 1A deletion mutant Syn 1A17 (amino acids 4-240) (Schistosoma japonicum; rat). Described as above.
In assay [10] the target is GST-syntaxin 1A deletion mutant Syn 1A6 (amino acids 4-190) (Schistosoma japonicum; rat). The assay is described as above.
Assay [11] deals with GST-syntaxin 1A deletion mutant Syn 1A13 (amino acids 4-221) (Schistosoma japonicum; rat). Described as above.
For assay [12], the target named is GST-syntaxin 1A cytoplasmic domain fusion protein (Syn 1A11, amino acids 4-266), immobilized on glutathione agarose beads (Schistosoma japonicum; rat). The assay is described as follows: 20S complex on GST-Syn 1A11 beads, ATP and Mg++, Western blot densitometry.

Several values for one entry are separate records, joined by “and”; a condition that tells them apart may be missing. Equal values may be shown once.

Sequence of His-tagged α-SNAP (soluble NSF attachment protein), soluble recombinant (P81125 whole entry): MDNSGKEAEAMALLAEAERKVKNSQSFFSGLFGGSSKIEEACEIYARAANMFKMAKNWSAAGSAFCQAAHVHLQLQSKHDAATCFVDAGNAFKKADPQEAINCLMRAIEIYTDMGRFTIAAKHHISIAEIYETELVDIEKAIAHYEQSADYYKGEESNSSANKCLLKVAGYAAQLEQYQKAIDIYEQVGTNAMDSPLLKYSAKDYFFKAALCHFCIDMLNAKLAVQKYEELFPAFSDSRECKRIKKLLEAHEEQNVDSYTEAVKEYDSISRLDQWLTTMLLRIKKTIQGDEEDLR

In the case of “His-tagged α-SNAP (soluble NSF attachment protein), soluble recombinant (from UniProt P81125)”, the percent dissociated from syntaxin following ATP hydrolysis by NSF in [1] was 70% and 90%. The percent dissociated in the presence of ATP and Mg++ in assay [2] was found to be 25%. Besides, the densitometry pixel value came out at 33 pixel value in assay [3]; 1830 pixel value in assay [4]; 0 pixel value in assay [5]; 8 pixel value in [6]; 331 pixel value in assay [7]; 1540 pixel value in [8]. Besides, the densitometry pixel value came out at 793 pixel value in assay [9], 0 pixel value in assay [10] and 0 pixel value in [11].

As to “VAMP (vesicle-associated membrane protein; VAMP 2), soluble recombinant”, the percent dissociated from syntaxin following ATP hydrolysis by NSF in assay [1] is 80% and 90%. In [2], the percent dissociated in the presence of ATP and Mg++ is 0%. The densitometry pixel value was 133 pixel value in assay [7]; 951 pixel value in [8]; 903 pixel value in assay [9]; 0 pixel value in [10]; 1560 pixel value in assay [11].

With “SNAP-25 (synaptosomal-associated protein of 25 kDa), soluble recombinant”, the percent remaining associated with the GST-syntaxin beads in [12] came out at 90%. The percent dissociated in the presence of ATP and Mg++ in assay [2] turned out to be 0%. In addition, the densitometry pixel value in assay [7] was determined as 75 pixel value; in [8], 484 pixel value; in assay [9], 546 pixel value; in assay [10] it was 0 pixel value; in assay [11], 1310 pixel value.
